In US20150010928A1, “MEANS AND METHODS FOR ASSESSING AN ENDOCRINE DISEASE OR DISORDER” (priority 2012, published 2015):
Marks after values point to notes of the source that are not given here.

Legend:
female rats = experiment: Plasma metabolite profiling (GC-MS, LC-MS, SPE-LC-MS) in female rats dosed once daily over 28 days (OECD 407); format: in vivo, rat; settings: female rats, plasma, high dose, day 28
Experimental: Each dose group in the studies consisted of five rats per sex. Additional groups of each 5 male and female animals served as controls. […] All animals of the animal population were kept under the same constant temperature (20-24±3° C.) and the same constant humidity (30-70%). The animals of the animal population were fed ad libitum. The food to be used was essentially free of chemical or microbial contaminants. Drinking water was also offered ad libitum. Accordingly, the water was free of chemical and microbial contaminants as laid down in the European Drinking Water Directive 98/83/EG. The illumination period was 12 hours light followed by 12 hours darkness (12 hours light, from 6:00 to 18:00, and 12 hours darkness, from 18:00 to 6:00). […] The test substances (compounds) in the Tables 1 to 17 below were dosed and administered as described in the Table 18.
In the morning of day 7, 14, and 28, blood was taken from the retroorbital venous plexus from fasted anaesthetized animals. From each animal, 1 ml of blood was collected with EDTA as anticoagulant. The samples were centrifuged for generation of plasma. All plasma samples were covered with a N2 atmosphere and then stored at −80° C. until analysis.
For mass spectrometry-based metabolite profiling analyses plasma samples were extracted and a polar and a non-polar (lipid) fraction was obtained. For GC-MS analysis, the non-polar fraction was treated with methanol under acidic conditions to yield the fatty acid methyl esters. Both fractions were further derivatised with O-methyl-hydroxyamine hydrochloride and pyridine to convert Oxogroups to O-methyloximes and subsequently with a silylating agent before analysis. In LC-MS analysis, both fractions were reconstituted in appropriate solvent mixtures. HPLC was performed by gradient elution on reversed phase separation columns. Mass spectrometric detection which allows target and high sensitivity MRM (Multiple Reaction Monitoring) profiling in parallel to a full screen analysis was applied as described in WO2003073464.
Steroids and their metabolites were measured by online SPE-LC-MS (Solid phase extraction-LC-MS).
Following comprehensive analytical validation steps, the data for each analyte were normalized against data from pool samples. These samples were run in parallel through the whole process to account for process variability. The significance of treatment group values specific for sex, treatmentduration and metabolite was determined by comparing means of the treated groups to the means of the respective untreated control groups using WELCH-test and quantified with treatment ratios versus control and p-values.
The identification of the most important biomarkers per toxicity pattern was done by a ranking of the analytes in the tables below. Therefore the metabolic changes in reference treatments of a given pattern (shown in the table) were compared with changes of the same metabolite in other unrelated treatments. […] The maximum absolute value of the respective TVALUE was taken to indicate the most important metabolite for the pattern.

male rats = experiment: Plasma metabolite profiling (GC-MS, LC-MS, SPE-LC-MS) in male rats dosed once daily over 28 days (OECD 407); format: in vivo, rat; settings: male rats, plasma, high dose, day 28
Outline: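 Metabolites were measured by GC-MS (derivatised) and reversed-phase LC-MS, with steroids by online SPE-LC-MS, in plasma drawn from fasted rats on days 7, 14 and 28 of once-daily dosing (5/sex/group). Values are ratios versus sex-matched untreated controls, normalized to pool samples, with Welch-test p-values.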

## ACTH: adrenocorticotropin (ACTH) produced in the adenohypophysis of the pituitary gland (SYSMEHFRWGKPVGKKRRPVKVYPNGAEDESAEAFPLEF; Corticotropin; UniProt P01189 138-176, looked up)
Female rats
  3-Hydroxybutyrate, ratio versus control: 0.85 *
  5-Oxoproline, ratio versus control: 1.05 *
  18-Hydroxy-11-deoxycorticosterone, ratio versus control: 0.69 *
  21-Hydroxyprogesterone (11-Deoxycorticosterone), ratio versus control: 0.31 *
  Biotin, ratio versus control: 0.7 *
  Choline plasmalogen No 03, ratio versus control: 0.77 *
  Citrate, ratio versus control: 0.92 *
  Corticosterone, ratio versus control: 0.67 *
  Ketoleucine, ratio versus control: 0.76 *
  Lactate, ratio versus control: 0.68 *
  Lysophosphatidylcholine (C18:2), ratio versus control: 1.06 *
  Lysophosphatidylcholine (C20:4), ratio versus control: 1.11 *
  Malate, ratio versus control: 0.76 *
  Mannose, ratio versus control: 1.04 *
  TAG No 059, ratio versus control: 1.62 *
  Tyrosine, ratio versus control: 1.26 *
  alpha-Tocopherol, ratio versus control: 0.95 *
Male rats
  3,4-Dihydroxyphenylalanine (DOPA), ratio versus control: 0.86 *
  3-Hydroxybutyrate, ratio versus control: 0.65 *
  18-Hydroxy-11-deoxycorticosterone, ratio versus control: 0.43 *
  21-Hydroxyprogesterone (11-Deoxycorticosterone), ratio versus control: 0.18 *
  Biotin, ratio versus control: 0.64 *
  Citrate, ratio versus control: 0.82 *
  Corticosterone, ratio versus control: 0.42 *
  Ketoleucine, ratio versus control: 0.81 *
  Lysophosphatidylethanolamine (C22:5), ratio versus control: 1.22 *
  Phosphatidylcholine No 04, ratio versus control: 0.8 *
  Progesterone, ratio versus control: 0.14 *
  Urea, ratio versus control: 1.28 *
